Data taken from US20140178378A1.

Molecular target: IL-6/sIL-6R complex
Experiment: cell-based or functional assay

wild type sgp130Fc (from UniProt P40189 23-619) (Fc fusion)
IC50, inhibition of IL-6/sIL-6R-induced proliferation of BAF3/gp130 cells (MTS cell viability assay, 3 days): 0.8 µg/mL
